Measured values as given in US20230137139A1, “BIOSYNTHESIS OF CANNABINOIDS AND C[…]” (priority 2020, published 2023).

B1: t861551 (protein)
chain: MGNTTSIAGRDCLISALGGNSALAVFPNQLLWTADVHEYNLNLPVTPAAITYPETAEQIAGIVKCASDYDYKVQARSGGHSFGNYGLGGTDGAVVVDMKHFNQFSMDDQTYEAVIGPGTTLNDVDIELYNNGKRAMAHGVCPTIKTGGHFTIGGLGPTARQWGLALDHVEEVEVVLANSSIVRASNTQNQDVFFAVKGAAADFGIVTEFKVRTEPAPGLAVQYSYTFNLGSTAEKAQFVKDWQSFISAKNLTRQFYNNMVIFDGDIILEGLFFGSKEQYDALGLEDHFAPKNPGNILVLTDWLGMVGHALEDTILKLVGNTPTWFYAKSLGFRQDTLIPSAGIDQFFEYIANHTAGTPAWFVTLSLEGGAINDVAEDATAYAHRDVLFWVQLFMVNPLGPISETTYEFTDGLYDVLARAVPESVGHAYLGCPDPRMENAPQKYWRTNLPRLQELKEELDPKNTFHHPQGVIPA
B2: t861563 (protein)
chain: MARVPALFLGLSSVCLLVFFCSLINPTTPLHQHGKQTSIAGRDCLVSALGGNTGLVAFQDQLLYQTTAVHEYNLNIPVTPAAITYPETSEQIAAVVKCASEYDYKVQARSGGHSFGNYGLGGADGAVVVDMKHFTQFSMDEQTYEAVIGPGTTLGDVDTELYNNGKRAMAHGICPTISTGGHFTMGGLGPTARQWGLALDHVEEVEVVLANSSIVRASNTQNQEVFFAVKGAAASFGIVTEFKVRTQPAPGLAVQYSYTFNLGSSAEKAQFVKDWQSFISAKNLTRQFYTNMVIFDGNIILEGLFFGSKEQYEALGLEDRFVPKNPGNILVLTDWLGMVGHALEDTILRLVGNTPTWFYAKSLGFTPDTLIPSSGIDEFFDYIENNKAGTLTWFVTLSLEGGAINDVPKDATAYGHRDVLFWVQIFMASPTGPVSSTTYDFADGLYNVLTKAVPESEGHAYLGCPDPKMADAQQKYWRQNLPRLEELKATLDPKDTFHNPQGILPA
B3: t861559 (protein)
chain: MAPSISFSLLQISLLAYSGLVSGDFSLRQCLESAVSRVAFEGDPFYQLLSVRPYNLDISIVPAAVAFPADTNEVAAVVRCAAQNGYQVQAKSGGHSYANHGLGGTNGAVVVNLENLQHFSMNTTTWEATIGAGTLLGDVTKRLSDAGGRAMAHGTCPQVGSGGHFTIGGLGPSSRQFGAALDHIIEAEVVLANSSIIRASETENPDVFFAVRGAASGFGIVTEFKVRTEPEPGQAVRYSYSFSFSDTATRADLFKKWQAYVTQPDLPRELASTLTILEHGMFITGTFFGSKEEYNALKIETEFPGFAKGGTLVLDDWLGLVSNWAEDLLLSEEEIEQMFEYIDNVDKGTLLWFAIFDLQGGAVGDVPVDATAYAHRDTLIWLQSYAINLFGRISETTVEFLERLNELTLTSTAKTVPYAAYPGYVDPRLTDAQAAYWGSNLARLNRIKAEIDPNNVFHNPQSVRPASG
B4: t861586 (protein)
chain: MAPSISFSLLQISLLAYSGLVSGDFSLRQCLESAVSRVAFEGDPFYQLLSVRPYNLDISIVPAAVAFPADTNEVAAVVRCAAQNGYQVQAKSGGHSYANHGLGGTNGAVVVNLENLQHFSMNTTTWEATIGAGTLLGDVTKRLSDAGGRAMAHGTCPQVGSGGHFTIGGLGPSSRQFGAALDHIIEAEVVLANSSIIRASETENPDVFFAVRGAASGFGIVTEFKVRTEPEPGQAVRYSYSFSFSDTATRADLFKKWQAYVTQPDLPRELASTLTILEHGMFITGTFFGSKEEYNALKIETEFPGFAKGGTLVLDDWLGLVSNWAEDLLLSEEEIEQMFEYIDNVDKGTLLWFAIFDLQGGAVGDVPVDATAYAHRDTLIWLQSYAINLFGRISETTVEFLERLNELTLTSTAKTVPYAAYPGYVDPRLTDAQAAYWGSNLARLNRIKAEIDPNNVFHNPQSVRPASG
B5: t861562 (protein)
chain: MGNTTSIAAGRDCLISAVGGNAAHVAFQDQLLYQATAVEPYNLNIPITPAAITYPQSADEIAAVVKCASEYGYKVQARSGGHSFGNYGLGGEDGAIVVEMKHFSQFSMDESTYIATIGPGITLGDLDTELYNVGHRAMAHGICPTIRTGGHLTVGGLGPTARQWGLALDHVEEVEVVLANSSIVRASDTQNQDIFFAIKGAAASFGIVTEFKVRTEQAPGLAVQYSYTFNLGTPAEKAKLVKDWQAFIAQENLSWKFYSNMVVFDGQIILEGLYFGSKEEYDALGLEQRFPPSEAGNVLVLTDWLGMVGHELEDTILRLVGNTPTWFYAKSLGFTPRALIPDSAIDDLFNYIHENNPGTLAWFVTLSLEGGAINTVPEHATAYGHRDVLFWVQIFVINPLGPVSQTTYGFADGMYDVLAQAVPESAGHAYLGCPDPRMPNAQQAYWRSNLPRLEELKGDLDPKGIFHNPQGVMVVS
B6: t861557 (protein)
chain: MLKTIAAVVFICSQAFLVRADLKSELTALGVGAVFPGDSVYTSDAKPYNLRFDFKPAAITFPNTPADVSQIVQIAGKYAHKVAPRGGGHSYISNGVGGMDNSIIADMSHFKSIVVHTNNDTATIETGNRLGDIALALFQYGRGMPHGACPYVGIGGHANFGGFGFISRSWGLTLDVVEAIDLVLANGTITTVSATQNPDLYWAMRGSGSSFGITTAIHVRTFSAPASGIIALDTWYLNLEQAVRALSSFQDFAHNTVTLPSYFGGEFVVNAGPSPGLLSITFFSGFWGPPNQYNSTLAPWKNSMPFPPNTTSYSQGNYIESLSARFGGAPLDTSLGPDNTDTFYVKSLIVPQVTISDEGAQVGISDKAWRALFQYLINEQPNLPVDWFIEVELWGGQNSAINAVPQASTAFAYRDLLWTLQMYSYTPNHQPPYPDAGFAFNDGMANSIIHNMPNGWNYGAYTNYVDNRLDDWQRLYYANHYPALQALKSRYDPSDTFSFPTSIELL
B7: t861568 (protein)
chain: MGNSASVAGRACFVAAVGHDPNLVTFRGDLLYEFRIQPSYNLAIPVHPTVVTYPKTTAQVAEIVSCAAAQNYKMQAYSGGHSYGNYGLGGEDGHVVVDLKNFQDFTMDPDTHVATIGAGTSLGDLQDRLWHAGGRAMAHGSCPQVGVGGHFTIGGLGMMSRQWGMSLDHVVEAQVVLANSSVVTASDTQNQDIFWAIKGAAASFGIVTKFKVRTHGVPKAAIQYQYTFSQGDVLDKVKLFMAWQNIVAKPNLTRNFSTELTIFQDGIMIMGSFFGTRDEFHKFELENDLPLQGLGNVAYITNWLSLVAHTAEDYLLRLTGNVLTSFYAKSLSFTADELFNEQGLVTLFTYLDAAPKGTPTWWVIFDLEGGATNDVPVNATSYAHRDAIMWMQSYAVAGFEPPGFIIKRFLNRLHGVVIGNRAPGAVRSYPGYVDPYLRNAQETYWGPNLARLQDIKTAVDPDDVFHNPQSVKVNSLSPPDPGSHDV
B8: t861588 (protein)
chain: MGNTTSIAAGRDCLLSAVGGNHAHVAFQDQLLYQVTAVEPYNLNIPVTPAAVTYPQSADEIAAVVKCASEYGYKVQARSGGHSFGNYGLGGEDGAIVVEMKHFNQFSMDESTYTATIGPGITLGDLDTALYNAGHRAMAHGICPTIRTGGHLTMGGLGPTARQWGLALDHVEEVEVVLANSSIVRASNTQNQDILFAIKGAAASFGIVTEFKVRTEAAPGVAVQYSFTFNLGTPAEKAKLVKDWQAFIAQEDLTWKFYSNMNIFDGQIILEGIYFGSKEEYDALGLEKRFPSSEAGTVLVLTDWLGMVGHGLEDVILRLVGNTPTWFYAKSLGFTPRALIPDSAIDEFLNYIHENTPGTVSWFVTLSLEGGAINKVPGDATAYGHRDVLFWVQIFMINPLGPVSQTTYGFADGLYDVLAKAVPNSAGHAYLGCPDPRMPNAQQAYWRSNLPRLEELKGELDPKDIFHNPQGVMVVS
modifications: N- and C-terminal signal peptides

What follows are molecules tested on CBCA production (assay: In vivo TS activity assay, Example 4 CBCAS enzymes with and without signal peptides, no pH adjustment). Details: strains with (Y) or without (N) N-terminal and C-terminal signal peptides; no pH adjustment at Day 4; S. cerevisiae.
Type: cell-based
Method: An assay to detect TS activity was conducted as follows: each thawed glycerol stock of candidate CBCAS transformants was stamped into a well of YEP+4% dextrose media. Samples were incubated at 30° C. in a shaking incubator for 2 days. A portion of each of the resulting cultures was stamped into a well of YEP+4% galactose+1 mM olivetolic acid (FIG. 1 Structure 6a). Samples were incubated at 20° C. and shaken in a shaking incubator for 4 days. Every 24 hours during those 4 days, 2% galactose and 1 mM olivetolic acid were spiked into the cultures. Sodium citrate buffer adjusted to pH 5.5 was added to each well at a final concentration of 100 mM. Samples were incubated at 20° C. and shaken in a shaking incubator for 2 days. A portion of each of the resulting production cultures was stamped into a well of phosphate buffered saline (PBS). Optical measurements were taken on a plate reader, with absorbance measured at 600 nm and fluorescence at 528 nm with 485 nm excitation. Samples were incubated at 30° C. in a shaking incubator for 2 days. 100% methanol was stamped into the production cultures in half-height deepwell plates. Plates were heat sealed and frozen. Samples were then thawed for 30 min and spun down at 4° C. A portion of the supernatant was stamped into half-area 96 well plates. CBCA, THCA, and CBDA production in the samples was quantified via liquid chromatography-mass spectrometry (LC-MS).
A library of 20 CBCAS enzymes selected from Example 1 and 3 was synthesized, including versions of the CBCAS enzymes with and without the N-terminal MFalpha2 signal peptide (SEQ ID NO: 16) and C-terminal HDEL signal peptide (SEQ ID NO: 17). Each candidate enzyme expression construct was transformed into an S. cerevisiae CEN.PK strain that also expressed a prenyltransferase enzyme capable of catalyzing reaction R^4 in FIG. 2. Strain t861555 expressing the A. niger CBCAS identified in Example 1, carrying both the Mfalpha2 and HDEL signal peptides was included in the library screen as a positive control for enzyme activity. Strain t861565 expressed the same A. niger CBCAS without the Mfalpha2 and HDEL signal peptides.
The strains were screened using the assay described in Example 1 with the following exception: at Day 4 samples were not subjected to a pH adjustment and a further 2 days of incubation at 20° C.

Q: B1 was tested. Which “Average CBCA” value did it give?
A: 17501.94 µg/L

Q: With B2 as the molecule, how does the “Average CBCA” value read?
A: 4821.60 µg/L

Q: With B3 as the molecule, how does the “Average CBCA” value read?
A: 0.00 µg/L

Q: How did the “Average CBCA” value turn out when B4 was run?
A: 0.00 µg/L

Q: B5 was tested. Which “Average CBCA” value did it give?
A: 55737.91 µg/L

Q: B6 was tested. Which “Average CBCA” value did it give?
A: 520.64 µg/L

Q: How did the “Average CBCA” value turn out when B7 was run?
A: 0.00 µg/L

Q: B8 was tested. Which “Average CBCA” value did it give?
A: 42686.95 µg/L
